We go through 1 molecule from patent publication JP2020103280A.

In test [1] the target is ヒトFcγRIIIaを固定化した担体(分離剤)を詰めたカラム(FcR9_Fカラム、WO2018/150973号の実施例5に記載) (human). In words: FcγRIIIa affinity chromatography (FcR9_F column), area share of the strongly binding peak 3; antibody from bioreactor batch culture in BalanCD CHO Growth A without Mn, day 9.
For test [2] the target is unchanged. Briefly: FcγRIIIa affinity chromatography (FcR9_F column), area share of the strongly binding peak 3; antibody from bioreactor batch culture in BalanCD CHO Growth A with 5 µM Mn, day 10.
The target is the same in test [3]. Briefly: FcγRIIIa affinity chromatography (FcR9_F column), area share of the strongly binding peak 3; antibody from bioreactor batch culture in EX-CELL Advanced CHO Fed-batch Medium without Mn, day 10.
Test [4] shares this target. In words: FcγRIIIa affinity chromatography (FcR9_F column), area share of the strongly binding peak 3; antibody from bioreactor batch culture in EX-CELL Advanced CHO Fed-batch Medium with 1 µM Mn, day 10.
The target is the same in test [5]. Briefly: FcγRIIIa affinity chromatography (FcR9_F column), area share of the strongly binding peak 3; antibody from bioreactor batch culture in EX-CELL Advanced CHO Fed-batch Medium with 5 µM Mn, day 10.
Test [6] has the same target. Briefly: FcγRIIIa affinity chromatography (FcR9_F column), area share of the strongly binding peak 3; antibody from bioreactor batch culture in EX-CELL Advanced CHO Fed-batch Medium with 10 µM Mn, day 10.

B1: 抗インターロイキン6レセプター(IL−6R)抗体 (antibody, V domains shown)
VH: QVQLQESGPGLVRPSQTLSLTCTVSGYSITSDHAWSWVRQPPGRGLEWIGYISYSGITTYNPSLKSRVTMLRDTSKNQFSLRLSSVTAADTAVYYCARSLARTTAMDYWGQGSLVTVSS
VL: DIQMTQSPSSLSASVGDRVTITCRASQDISSYLNWYQQKPGKAPKLLIYYTSRLHSGVPSRFSGSGSGTDFTFTISSLQPEDIATYYCQQGNTLPYTFGQGTKVEIK
Regarding B1, the FcR9_Fカラムとの結合力が強いピーク(ピーク3)の割合 was determined as 27.9% in test [1]; 34.7% in test [2]; 35.9% in test [3]; 36.5% in test [4]; 38.4% in test [5]; 41% in test [6].
